We go through three molecules from US20130177579A1 (BIOALLIANCE C V, published 2013).

Assay [1] addresses human transferrin receptor expressed by nonhematopoietic cancer cells (human) (UniProt P02786). Description: FACS, DU145 cells, 1X.
Assay [2] shares this target. Description: FACS, Panc02.03B cells, 1X.
Assay [3] has the same target. Description: FACS, Panc-1 cells, 1X.
Assay [4] shares this target. Description: FACS, Panc-1 cells, 1/5X. In general terms: A flow cytometer gives signals particle by particle.
The target is the same in assay [5]. Description: FACS, KLE cells, 1/5X.
The target is the same in assay [6]. Description: FACS, SK-OV-3 cells, 1X.
For assay [7] the target is unchanged. Description: FACS, A549 cells, 1/5X.
The target is the same in assay [8]. Description: FACS, A549 cells, 1X.
The target is the same in assay [9]. Description: FACS, HEC-1-A cells, 1X.
Assay [10] shares this target. Description: FACS, SU.86.86 cells, 1X.
Assay [11] has the same target. Description: FACS, WiDr cells, 1x.
Assay [12] shares this target. Description: FACS, Panc02.03B cells, 1x.
Assay [13] shares this target. Description: FACS, NCI-N87 cells, 1x.
Assay [14] has the same target. Description: FACS, HEC-1-A cells, 1x.
For assay [15] the target is unchanged. Description: FACS, DU145 cells, 1x.
Assay [16] has the same target. Description: FACS, DLD-1 cells, 1x.
For assay [17] the target is unchanged. Description: FACS, WiDr cells, 1/5X.
For assay [18] the target is unchanged. Description: FACS, MDA-MB-453 cells, 1x.
Assay [19] shares this target. Description: FACS, NCI-N87 cells, 1/5X.
Assay [20] shares this target. Description: FACS, SNU-16 cells, 1/5X.
Assay [21] shares this target. Description: FACS, SNU-16 cells, 1x.
Assay [22] has the same target. Description: FACS, OMC-3 cells, 1x.
Assay [23] shares this target. Description: FACS, COLO205 cells, 1x.
Assay [24] shares this target. Description: FACS, H727 cells, 1/5X.
Assay [25] shares this target. Description: FACS, SK-OV-3 cells, 1x.
Assay [26] shares this target. Description: FACS, Kato III cells, 1x.
The target is the same in assay [27]. Description: FACS, H727 cells, 1x.
For assay [28] the target is unchanged. Description: FACS, SU.86.86 cells, 1x.
The target is the same in assay [29]. Description: FACS, NCI-N87 cells, 1X.
Assay [30] shares this target. Description: FACS, COLO205 cells, 1X.
Assay [31] has the same target. Description: FACS, WiDr cells, 1X.
Assay [32] has the same target. Description: FACS, SNU-16 cells, 1X.

Sequence of human transferrin receptor expressed by nonhematopoietic cancer cells (human) (P02786 whole entry G142S): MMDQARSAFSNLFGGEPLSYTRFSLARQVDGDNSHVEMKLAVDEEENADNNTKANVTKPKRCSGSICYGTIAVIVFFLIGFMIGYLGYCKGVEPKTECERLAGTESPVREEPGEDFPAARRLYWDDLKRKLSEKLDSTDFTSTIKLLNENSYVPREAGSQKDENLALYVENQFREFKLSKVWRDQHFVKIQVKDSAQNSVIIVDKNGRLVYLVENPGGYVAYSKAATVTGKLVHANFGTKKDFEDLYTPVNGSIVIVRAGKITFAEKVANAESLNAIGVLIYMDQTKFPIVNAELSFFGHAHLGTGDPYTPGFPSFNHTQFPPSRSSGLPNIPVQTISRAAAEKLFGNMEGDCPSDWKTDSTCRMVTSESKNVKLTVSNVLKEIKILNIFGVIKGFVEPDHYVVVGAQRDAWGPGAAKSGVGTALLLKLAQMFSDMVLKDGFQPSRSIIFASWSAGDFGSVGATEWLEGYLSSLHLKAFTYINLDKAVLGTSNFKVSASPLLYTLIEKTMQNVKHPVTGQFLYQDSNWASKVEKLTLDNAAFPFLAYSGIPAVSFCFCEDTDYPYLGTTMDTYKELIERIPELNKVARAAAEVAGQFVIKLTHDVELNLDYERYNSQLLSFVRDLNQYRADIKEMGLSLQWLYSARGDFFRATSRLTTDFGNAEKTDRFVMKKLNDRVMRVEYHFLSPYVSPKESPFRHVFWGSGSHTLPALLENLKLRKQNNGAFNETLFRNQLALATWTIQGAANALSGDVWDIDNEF

B1: antibody 55-31 (antibody, mouse IgM, V domains shown)
VH: QVQLQQPGAELVKPGTSVKLSCKASGYNFTSYWINWVKLRPGQGLEWIGDIYPGSGSTNYNEKFKSKATLTVDTSSSTAYMQLSSLASEDSALYYCARSAYRYDWFAYWGQGTLVTVSA
VL: DIQMTQSPASLSVSVGETVTITCRASENIYSNLAWYQQKQGKSPQLLVYAATNLADGVPSRFSGSGSGTQYSLKINSLQSEDFGSYYCQHFWGTPYTFGGGTKLEIKR
notes: Mouse IgM, kappa from a hybridoma; tested as hybridoma culture supernatant
On to B1, for which the MFI in assay [1] is 2280 MFI; in assay [2], 574 MFI; in [3], 773 MFI; in assay [4], 503 MFI; in assay [5] it was 87 MFI; in assay [6], 2370 MFI. Moreover, the MFI in assay [7] was 711 MFI; in assay [8] it was 897 MFI; in assay [9], 1490 MFI; in [10] it was 154 MFI.

B2: antibody 122-72 (antibody, V domains shown)
VH: EVQLVESGGGLVQPKGSLKLSCAASGFTFNTYAMNWVRQAPGKGLEWVARIRSKSNNYATYYADSVKDRFTISRDDSQSMLYLQMNNLKTEDTAMYYCVAYGSRNYWGQGTTLTVSS
VL: DIVMTQSPSSLTVTAGEKVTMSCKSSQSLLNSGNQKNYLTWYQQKPGQPPKLLIYWASTRESGVPDRFTGSGSGTDFTLTISSVQAEDLAVYYCQNDYSYPYTFGGGTKLEIKR
notes: Mouse IgM, kappa from a hybridoma; tested as hybridoma culture supernatant; Antibody 60-43 is said to have the same CDRs
As for B2, the MFI was found to be 2480 MFI in assay [11]; 4690 MFI in assay [12]; 3940 MFI in assay [13]; 72 MFI in assay [14]; 51 MFI in [15]; 2500 MFI in assay [16]. For the same molecule, the MFI was 2460 MFI in assay [17]; 53 MFI in assay [18]; 4300 MFI in assay [19]; 5100 MFI in [20]; 4150 MFI in assay [21]; 3460 MFI in assay [22]. The MFI in assay [23] was determined as 6660 MFI; in assay [24], 319 MFI; in [25] it was 467 MFI; in assay [26], 613 MFI; in assay [27], 623 MFI; in assay [28], 5070 MFI.

B3: antibody 6-90 (antibody, mouse IgM, V domains shown)
VH: EVELQQFGIEMVKPGASVKISCKASGYIFTDYHMDWVRQSHGKSLEWIGDIDPKYDRVTYNQKFKGKASLTADKSSSTAYMELRSLTSEDTAVYYCAKTGAYGDYLAYWGQGTLVTVSA
VL: DLVMTQTPLSLPVSLGDQASISCRSSQSLVHSDGNTYFYWYLQKPGQSPKLLIYKVSNRFSGVPDRFSAGGSGTYFTLKISRVEAEDLGVYFCSQTTHFPPTFGGGTKLEIKR
notes: as for B1
B3: the MFI worked out at 5810 MFI in assay [29]; 5910 MFI in assay [2]; 1080 MFI in assay [17]; 5100 MFI in assay [19]; 3970 MFI in assay [20]; 7090 MFI in assay [30]. Further, the MFI was found to be 556 MFI in [5]; 57 MFI in assay [9]; 1420 MFI in [31]; 3950 MFI in assay [10]; 4750 MFI in [32].
